# Laboratory results as given in the supplement of paper PMC9732359.
# ± gives the uncertainty stated by the source.
# Assay: protein stability index of a GFP-peptide fusion (yeast GPS) (PSI 1-4); higher = more stable; sorted into four equal gates, so the index is relative within each strain
# How it was run: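 Plasmids in a pooled yeast library fused tiled 17-residue yeast protein peptides downstream of GFP and also expressed Cherry. Mid-log cultures grown without leucine were sorted into four equal gates by GFP/Cherry fluorescence ratio. Each gate's plasmids were PCR-amplified and Illumina-sequenced, and reads were matched to strains by barcodes. The protein stability index is derived by multiplying each gate's read frequency by its gate number and summing the results.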
sequence,measurement,setting,value
SSLHSPTSDEPVPESAG [SRB4],protein stability index,doa10∆,2.61 ± 0.065
same,protein stability index,pdr5∆,3.16 ± 0.081
same,protein stability index,san1∆,2.95 ± 0.063
same,protein stability index,ubr1∆,3 ± 0.057
SSLLYTYDENDDFFKEL [ESC2],protein stability index,doa10∆,2.52 ± 0.13
same,protein stability index,pdr5∆,2.8 ± 0.17
same,protein stability index,san1∆,2.62 ± 0.15
same,protein stability index,ubr1∆,2.87 ± 0.094
SSLNGTNAKIPQFDSTQ [SSN3],protein stability index,doa10∆,3.06 ± 0.08
same,protein stability index,pdr5∆,3 ± 0.093
same,protein stability index,san1∆,2.98 ± 0.067
same,protein stability index,ubr1∆,2.97 ± 0.063
SSLVQKGLETIDNGAES [RPC53],protein stability index,doa10∆,2.65 ± 0.26
same,protein stability index,pdr5∆,3.02 ± 0.21
SSNISPEQVYSLLLTNV [ARP7],protein stability index,doa10∆,2.27 ± 0.035
same,protein stability index,pdr5∆,2.48 ± 0.036
same,protein stability index,san1∆,2.43 ± 0.04
same,protein stability index,ubr1∆,2.46 ± 0.033
SSNPNSSLHSPTSDEPV [SRB4],protein stability index,doa10∆,3.09 ± 0.13
same,protein stability index,pdr5∆,2.99 ± 0.079
same,protein stability index,san1∆,2.99 ± 0.063
same,protein stability index,ubr1∆,3.15 ± 0.058
SSSSLECATCHGNLASC [RPO31],protein stability index,doa10∆,2.79 ± 0.046
same,protein stability index,pdr5∆,3.04 ± 0.058
same,protein stability index,san1∆,3.05 ± 0.049
same,protein stability index,ubr1∆,2.95 ± 0.037
SSTIDAPAFHTSGKVEL [SRB8],protein stability index,doa10∆,2.9 ± 0.28
same,protein stability index,san1∆,2.94 ± 0.18
same,protein stability index,ubr1∆,2.87 ± 0.082
SSTLGIDLEDIKEELTK [PCI8],protein stability index,doa10∆,2.93 ± 0.091
same,protein stability index,pdr5∆,3.1 ± 0.094
same,protein stability index,san1∆,3.17 ± 0.1
same,protein stability index,ubr1∆,3.02 ± 0.1
SSVIQNYDIITASSLAH [YML103C/NUP188],protein stability index,doa10∆,1.69 ± 0.079
same,protein stability index,pdr5∆,1.88 ± 0.066
same,protein stability index,san1∆,1.98 ± 0.092
same,protein stability index,ubr1∆,2.03 ± 0.041
SSVMSSPRVEKRSFSST [YOR098C/NUP1],protein stability index,doa10∆,2.75 ± 0.057
same,protein stability index,pdr5∆,2.23 ± 0.041
same,protein stability index,san1∆,2.44 ± 0.052
same,protein stability index,ubr1∆,2.54 ± 0.039
STFRLNLSVTSPYNADF [RPO21],protein stability index,doa10∆,2.21 ± 0.05
same,protein stability index,pdr5∆,2.34 ± 0.054
same,protein stability index,san1∆,2.6 ± 0.075
same,protein stability index,ubr1∆,2.93 ± 0.044
STFTKHLIKCFFKITLQ [ITC1],protein stability index,doa10∆,1.43 ± 0.039
same,protein stability index,pdr5∆,1.28 ± 0.03
same,protein stability index,san1∆,1.51 ± 0.058
same,protein stability index,ubr1∆,1.6 ± 0.03
STGLKSASDALKGRVVE [RPS1A],protein stability index,doa10∆,3.29 ± 0.078
same,protein stability index,pdr5∆,3.31 ± 0.071
same,protein stability index,san1∆,3.48 ± 0.044
same,protein stability index,ubr1∆,3.37 ± 0.084
STIITKAINQELEDVAV [YCS4],protein stability index,doa10∆,2.96 ± 0.23
same,protein stability index,pdr5∆,3.22 ± 0.11
same,protein stability index,san1∆,2.72 ± 0.057
same,protein stability index,ubr1∆,3.04 ± 0.061
STKKIQVATKYASLKLP [YMR129W/POM152],protein stability index,doa10∆,1.78 ± 0.047
same,protein stability index,pdr5∆,1.93 ± 0.036
same,protein stability index,san1∆,1.55 ± 0.069
same,protein stability index,ubr1∆,1.92 ± 0.038
STKKKILGIHTSKMNLS [RPT2],protein stability index,doa10∆,3.47 ± 0.13
same,protein stability index,pdr5∆,3.21 ± 0.096
same,protein stability index,san1∆,3.42 ± 0.071
same,protein stability index,ubr1∆,3.05 ± 0.073
STLHMLGYTHIAINFTV [RPP1],protein stability index,doa10∆,1.5 ± 0.041
same,protein stability index,pdr5∆,1.39 ± 0.037
same,protein stability index,san1∆,1.45 ± 0.067
same,protein stability index,ubr1∆,1.55 ± 0.041
STLKSFFTNPNKKRPSS [YOR098C/NUP1],protein stability index,doa10∆,2.79 ± 0.052
same,protein stability index,pdr5∆,3.06 ± 0.049
same,protein stability index,san1∆,3.08 ± 0.043
same,protein stability index,ubr1∆,2.91 ± 0.045
STLTTISGNPPLLYNSL [SRB5],protein stability index,doa10∆,2.66 ± 0.043
same,protein stability index,pdr5∆,2.46 ± 0.038
same,protein stability index,san1∆,2.49 ± 0.043
same,protein stability index,ubr1∆,2.56 ± 0.036
STLYKYLKESKRKYDEI [SWI3],protein stability index,doa10∆,3.51 ± 0.12
same,protein stability index,pdr5∆,3.42 ± 0.24
same,protein stability index,san1∆,3.21 ± 0.17
same,protein stability index,ubr1∆,2.84 ± 0.15
STPNFGGNSNKSPPQFF [SIN4],protein stability index,doa10∆,2.88 ± 0.039
same,protein stability index,pdr5∆,3.1 ± 0.043
same,protein stability index,san1∆,2.89 ± 0.03
same,protein stability index,ubr1∆,2.9 ± 0.032
STRKTPNGEGSKTWETY [RPS20],protein stability index,doa10∆,3.19 ± 0.17
same,protein stability index,pdr5∆,3.36 ± 0.16
same,protein stability index,san1∆,3.07 ± 0.11
same,protein stability index,ubr1∆,3.34 ± 0.082
STRVEFEKLYSDLMKFL [FAS2],protein stability index,doa10∆,3.45 ± 0.3
same,protein stability index,pdr5∆,3.27 ± 0.2
same,protein stability index,san1∆,3.26 ± 0.15
STSENKISEGSAKPTFS [YOR098C/NUP1],protein stability index,doa10∆,3.63 ± 0.18
same,protein stability index,pdr5∆,2.52 ± 0.26
same,protein stability index,san1∆,2.8 ± 0.14
same,protein stability index,ubr1∆,3.17 ± 0.097
STSKFESQYPIVTEQPS [SWP82],protein stability index,doa10∆,2.41 ± 0.041
same,protein stability index,pdr5∆,2.58 ± 0.046
same,protein stability index,san1∆,2.41 ± 0.054
same,protein stability index,ubr1∆,2.5 ± 0.04
STSNALKVLSGDEGYNE [SNF12],protein stability index,doa10∆,3.39 ± 0.11
same,protein stability index,pdr5∆,3.24 ± 0.11
same,protein stability index,san1∆,3.04 ± 0.059
same,protein stability index,ubr1∆,3.5 ± 0.13
